Molecular target: mutant M9R α-tropomyosin_(slow) (human) (UniProt P06753)
Test: far-Western, overlay or dot blot

UniProt P06753, sequence (P06753 whole entry M9R): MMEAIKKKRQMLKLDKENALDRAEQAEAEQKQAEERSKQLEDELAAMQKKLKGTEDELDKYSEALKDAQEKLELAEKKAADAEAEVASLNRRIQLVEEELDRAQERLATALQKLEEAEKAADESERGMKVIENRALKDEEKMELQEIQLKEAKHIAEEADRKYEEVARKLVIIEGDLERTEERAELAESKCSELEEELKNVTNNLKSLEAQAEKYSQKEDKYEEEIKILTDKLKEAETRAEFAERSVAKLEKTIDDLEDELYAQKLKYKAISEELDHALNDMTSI

- percent of the binding to wild-type α-tropomyosin (slow): 10%
Substance: Recombinant human Tmod1 protein (from UniProt P28289 1-359) (natural protein)
